Test [1] deals with beta-galactosidase. As to conditions: 1% peptide, 3 times per week; keratinocytes aged 20 days in culture; X-gal staining.
Description: These cells are maintained in culture in a special keratinocyte-SFM medium (Invitrogen) at 37° C. under a humidified atmosphere of 5% CO2. Aged NHK cells are obtained by performing a series of repeated sub-cultures. Briefly the cells are seeded in 75 cm^2 flasks, at low density and cultured from 5 to 10 days between 2 passages. […] The cells are then maintained under these conditions for 45 days.
A study of the antiaging effect of the active principle was carried out by evaluating the expression of the beta-galactosidase protein on experimentally aged keratinocytes in culture.
Keratinocytes experimentally aged in 8-well labteck are cultured and maintained for 20 days in the presence or not of 1% peptide of SEQ ID No. 6. The treatment is carried out 3 times per week by direct addition into the medium.
Untreated cells are maintained in culture for the same experiment time and will be used as controls. On the day of labeling, the cells are rinsed and fixed in a 2% glutaraldehyde-2% formaldehyde mixture for 3 minutes. The cells are then rinsed and 300 μl of 5-bromo-4-chloro-3 indolyl b-D-galactosidase, commonly called X-gal (substrate of beta-galactosidase), is applied. Incubation is carried out for 24 hours in the CO2 incubator, and then the cells are rinsed and the labteck is quickly mounted in a suitable medium. Observation is carried out by transmission microscope. […]
Test [2] concerns the target T1, 20S proteasome (Homo sapiens, UniProt P28072+P28074+Q99436).
T1 construct: endogenous in cells; host or cells: experimentally aged normal human keratinocytes (NHK); crude cell lysate
Kind of test: Enzymatic activity of 20S proteasome on aged keratinocytes maintained in culture (AMC fluorogenic substrates). Particulars: 1% peptide in medium, renewed 3 times per week, 15 days culture. The format is cell-based. The procedure: Experimentally aged keratinocytes maintained in culture for 15 days are treated with 1% of peptide SEQ ID No. 6. The enzymatic activities of 20S proteasome are then studied. In fact, 20S proteasome is the subunit responsible for enzymatic hydrolysis. Three enzymatic activities may be studied: Trypsin-like, chymotrypsin-like and peptidylglutamyl-peptide hydrolase (PGPH) activity. We are proposing to study these activities by a specific enzymatic assay of each activity.
The aged keratinocytes are maintained in culture for 15 days. The cell treatment is carried out by adding a solution at 1% of peptide SEQ ID No. 6 directly into the medium, renewed 3 times per week for the time of the experiment. The assay of each activity was carried out by using specific substrates labeled by a fluorescent compound 7-amido-4-methylcoumarin (AMC). After cleavage, the AMC excitation wavelength is 350 nm, the fluorescence is read at 440 nm. The fluorescence intensity is proportional to the quantity of fluorochrome obtained and consequently, this quantity is proportional to the quantity of hydrolyzed substrate.
The synthetic peptide Boc-Leu-Arg-Arg-AMC is specific for trypsin activity.
The synthetic peptide Suc-Leu-Leu-Val-Tyr-AMC (SEQ ID NO: 8) is specific for chymotrypsin activity.
The synthetic peptide Z-Leu-Leu-Glu-AMC is specific for peptidylglutamyl-peptide hydrolase activity.
The cells are detached from the support in an extraction buffer. Afterwards, the cells are sonicated for 1 minute at 4° C., and then centrifuged at 15000 g for 30 minutes at 4° C. The protein assay is carried out by the BCA kit (Pierce). After incubation of the cellular lysate with the synthetic substrate specific for the activity studied, fluorescence is read with the Synergy spectrophotometer (BIOTEK, Vermont, USA) at 440 nm.

The subject of test [3] is Ki67 protein. Kind of test: Ki67 proliferation marker immunolabelling on experimentally aged keratinocytes in culture. The format is cell-based, human. Particulars: 1% peptide in medium; keratinocytes aged 20 days in culture; immunofluorescence. The procedure:
A study of the activator effect of peptide SEQ ID No. 2 was carried out by evaluating the expression of the cellular proliferation marker protein on experimentally aged keratinocytes in culture. The analysis is carried out after 20 days of culture.
The keratinocytes are cultured for 20 days in a CO2 incubator at 37° C. under humidified atmosphere. The cells are treated directly by adding 1% peptide directly into the medium. Cells that are not treated but aged in the same manner are used as control cells. For experimental requirements, the cells are seeded in 8-well labteck, maintained in culture and treated in the same support until the day of labeling. On the day of immunolabelling, the cells are rinsed by using phosphate buffer and then fixed with cold methanol before labeling.
Immunolabelling is carried out by a rabbit anti-Ki67 antibody (Abcam) diluted to 1/1000th and a secondary antibody to 1/1000th coupled with an Alexa fluor monkey anti-rabbit fluorochrome (Molecular probes).
The slides are then mounted in a suitable medium and observed by epifluorescence microscope (Nikon Eclipse E E600).

Ends that are not written are not given here.

For the substance Arg-Lys-Gly-NH2 [SEQ ID No. 6], in test [1], the “beta-galactosidase activity in treated cells compared to untreated cells” value is recorded as “strongly reduced”. Also, in test [2] (substrate Boc-Leu-Arg-Arg-AMC, p=0.033), the “trypsin-like activity of 20S proteasome, increase” value was 155.3%. In addition, the “chymotrypsin-like activity of 20S proteasome, increase” value in test [2] (substrate Suc-Leu-Leu-Val-Tyr-AMC, p=0.0477) worked out at 130%. Also, the “peptidylglutamyl-peptide hydrolase activity of 20S proteasome, increase” value in test [2] (substrate Z-Leu-Leu-Glu-AMC, p=0.00053) was 144.6%.

“Leu-Arg-Lys-Gly-Met-NH2 (LRKGM-NH2) [SEQ ID No. 2]”: the “Ki67 protein expression in aged and treated cells compared to untreated cells” value in test [3] is listed as “increased the Ki67 protein”.
